Results on 11 variants are retold here after IntAct's records for PubMed 35512704.

The labels stand for the following.
B1: Speckle-type POZ protein (Homo sapiens), O43791 (parent)
chain: MSRVPSPPPPAEMSSGPVAESWCYTQIKVVKFSYMWTINNFSFCREEMGEVIKSSTFSSGANDKLKWCLRVNPKGLDEESKDYLSLYLLLVSCPKSEVRAKFKFSILNAKGEETKAMESQRAYRFVQGKDWGFKKFIRRDFLLDEANGLLPDDKLTLFCEVSVVQDSVNISGQNTMNMVKVPECRLADELGGLWENSRFTDCCLCVAGQEFQAHKAILAARSPVFSAMFEHEMEESKKNRVEINDVEPEVFKEMMCFIYTGKAPNLDKMADDLLAAADKYALERLKVMCEDALCSNLSVENAAEILILADLHSADQLKTQAVDFINYHASDVLETSGWKSMVVSHPHLVAEAYRSLASAQCPFLGPPRKRLKQS
partner: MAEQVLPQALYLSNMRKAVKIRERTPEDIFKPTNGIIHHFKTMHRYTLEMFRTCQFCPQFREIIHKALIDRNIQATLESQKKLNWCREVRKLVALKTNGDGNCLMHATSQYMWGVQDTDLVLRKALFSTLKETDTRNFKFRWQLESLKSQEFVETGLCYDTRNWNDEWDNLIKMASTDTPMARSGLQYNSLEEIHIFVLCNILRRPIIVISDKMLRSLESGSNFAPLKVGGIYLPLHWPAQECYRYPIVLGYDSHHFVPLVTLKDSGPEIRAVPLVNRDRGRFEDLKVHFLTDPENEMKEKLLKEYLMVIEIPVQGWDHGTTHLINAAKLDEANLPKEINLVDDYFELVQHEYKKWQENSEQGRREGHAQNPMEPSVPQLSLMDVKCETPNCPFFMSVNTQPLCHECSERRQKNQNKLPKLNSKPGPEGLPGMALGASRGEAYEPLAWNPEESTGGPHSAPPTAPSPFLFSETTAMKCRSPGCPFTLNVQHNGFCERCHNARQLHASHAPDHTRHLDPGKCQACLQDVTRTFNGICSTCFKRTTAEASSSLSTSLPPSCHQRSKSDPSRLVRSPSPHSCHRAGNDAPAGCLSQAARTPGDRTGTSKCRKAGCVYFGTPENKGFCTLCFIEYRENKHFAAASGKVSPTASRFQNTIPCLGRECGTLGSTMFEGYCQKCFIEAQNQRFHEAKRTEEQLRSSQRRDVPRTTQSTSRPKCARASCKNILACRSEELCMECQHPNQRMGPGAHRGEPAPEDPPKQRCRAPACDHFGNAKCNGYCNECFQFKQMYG
B2: Speckle-type POZ protein (Homo sapiens), O43791 (parent)
chain: B1 chain
partner: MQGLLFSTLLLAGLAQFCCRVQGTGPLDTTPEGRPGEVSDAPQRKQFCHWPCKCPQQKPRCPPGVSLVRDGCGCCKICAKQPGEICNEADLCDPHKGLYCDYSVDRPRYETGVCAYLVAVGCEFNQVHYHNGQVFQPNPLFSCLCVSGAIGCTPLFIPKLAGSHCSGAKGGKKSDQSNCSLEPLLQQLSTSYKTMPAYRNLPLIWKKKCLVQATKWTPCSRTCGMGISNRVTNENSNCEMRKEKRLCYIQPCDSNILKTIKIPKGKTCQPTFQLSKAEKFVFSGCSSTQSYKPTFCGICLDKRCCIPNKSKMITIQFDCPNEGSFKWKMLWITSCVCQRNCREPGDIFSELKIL
B3: Speckle-type POZ protein (Homo sapiens), O43791 (parent)
chain: B1 chain
partner: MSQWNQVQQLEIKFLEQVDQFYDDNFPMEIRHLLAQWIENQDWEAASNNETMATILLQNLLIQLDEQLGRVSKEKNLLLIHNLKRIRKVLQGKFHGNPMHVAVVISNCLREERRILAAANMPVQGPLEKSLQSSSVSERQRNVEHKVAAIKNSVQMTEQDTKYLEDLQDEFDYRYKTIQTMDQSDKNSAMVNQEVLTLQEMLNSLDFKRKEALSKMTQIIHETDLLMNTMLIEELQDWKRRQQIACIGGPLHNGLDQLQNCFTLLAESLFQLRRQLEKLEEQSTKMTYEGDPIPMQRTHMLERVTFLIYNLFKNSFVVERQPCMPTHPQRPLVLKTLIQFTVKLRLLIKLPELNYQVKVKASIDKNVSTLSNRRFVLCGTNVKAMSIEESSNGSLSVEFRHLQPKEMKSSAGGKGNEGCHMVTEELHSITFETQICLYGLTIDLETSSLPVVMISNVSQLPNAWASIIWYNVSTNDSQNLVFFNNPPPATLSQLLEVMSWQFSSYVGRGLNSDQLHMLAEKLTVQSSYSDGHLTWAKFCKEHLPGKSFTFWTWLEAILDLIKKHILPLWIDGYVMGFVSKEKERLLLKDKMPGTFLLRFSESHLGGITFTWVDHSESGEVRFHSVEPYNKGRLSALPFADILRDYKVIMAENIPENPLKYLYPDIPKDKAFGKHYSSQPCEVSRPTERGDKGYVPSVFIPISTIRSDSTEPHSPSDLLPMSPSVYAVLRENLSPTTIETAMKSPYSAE
B4: Speckle-type POZ protein (Homo sapiens), O43791 (parent)
chain: B1 chain
partner: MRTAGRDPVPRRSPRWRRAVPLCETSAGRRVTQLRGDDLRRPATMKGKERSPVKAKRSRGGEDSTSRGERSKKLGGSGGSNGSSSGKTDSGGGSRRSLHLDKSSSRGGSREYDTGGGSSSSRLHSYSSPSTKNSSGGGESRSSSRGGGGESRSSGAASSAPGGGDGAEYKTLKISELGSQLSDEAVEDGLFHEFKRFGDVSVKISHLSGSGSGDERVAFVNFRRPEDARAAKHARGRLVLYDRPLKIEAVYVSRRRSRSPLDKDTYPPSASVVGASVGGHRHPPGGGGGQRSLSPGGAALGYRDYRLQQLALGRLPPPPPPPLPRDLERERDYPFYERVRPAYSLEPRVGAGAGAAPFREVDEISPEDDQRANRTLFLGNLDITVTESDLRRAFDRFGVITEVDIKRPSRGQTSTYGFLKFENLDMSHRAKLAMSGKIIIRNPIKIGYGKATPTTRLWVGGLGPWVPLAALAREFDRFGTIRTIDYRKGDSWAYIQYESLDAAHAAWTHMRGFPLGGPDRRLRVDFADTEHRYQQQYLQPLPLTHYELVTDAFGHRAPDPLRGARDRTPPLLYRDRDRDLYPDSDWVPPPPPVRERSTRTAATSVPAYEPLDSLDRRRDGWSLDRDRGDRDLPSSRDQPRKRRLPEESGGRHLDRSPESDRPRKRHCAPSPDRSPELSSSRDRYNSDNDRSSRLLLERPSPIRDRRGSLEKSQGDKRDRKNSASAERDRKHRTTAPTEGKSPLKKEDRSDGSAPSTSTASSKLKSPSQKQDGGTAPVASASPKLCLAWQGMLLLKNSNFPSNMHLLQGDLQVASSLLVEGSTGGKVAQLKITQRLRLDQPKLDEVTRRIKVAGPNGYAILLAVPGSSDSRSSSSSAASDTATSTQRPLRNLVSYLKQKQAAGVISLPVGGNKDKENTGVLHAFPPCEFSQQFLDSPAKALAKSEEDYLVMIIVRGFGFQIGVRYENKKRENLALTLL

The first test covers variants of B1. The conditions noted are these: with tnap3_human TNFAIP3, P21580.
Turning to F133L, the “effect of a mutation on the interaction” value is “with no effect”.

Variants of B2 are the subject of a further test. The conditions noted are these: with ccn6_human CCN6, O95389.
For the variant F102C, the “effect of a mutation on the interaction” value is given as “with no effect”.

In the next test the parent is B2. The conditions noted are these: with ccn6_human CCN6, O95389. This is another data set of the same source.
With F133V, the “effect of a mutation on the interaction” value is listed as “with no effect”.

In a further test the parent is B2. To be noted: with ccn6_human CCN6, O95389. The source holds these as a separate data set.
Consider F133L, for which the “effect of a mutation on the interaction” value is “with no effect”.

The next test covers variants of B2. To be noted: with ccn6_human CCN6, O95389. The source holds these as a separate data set.
With Y87C, the “effect of a mutation on the interaction” value is reported as “with no effect”.

A further test covers variants of B3. The conditions noted are these: with stat4_human STAT4, Q14765.
For F133L, the “effect of a mutation on the interaction” value is listed as “with no effect”.

The next test covers variants of B3. The conditions noted are these: with stat4_human STAT4, Q14765. This is another data set of the same source.
Take F133V: the “effect of a mutation on the interaction” value is on record as “with no effect”.

Variants of B3 are the subject of a further test. The conditions noted are these: with stat4_human STAT4, Q14765. This is another data set of the same source.
Take Y87C: the “effect of a mutation on the interaction” value is listed as “with no effect”.

Another test covers variants of B3. To be noted: with stat4_human STAT4, Q14765. This is another data set of the same source.
Regarding F102C, the “effect of a mutation on the interaction” value is “with no effect”.

In the next test the parent is B4. To be noted: with rbm15_human RBM15, Q96T37.
For the variant F133L, the “effect of a mutation on the interaction” value is on record as “with no effect”.

In the next test the parent is B4. To be noted: with rbm15_human RBM15, Q96T37. This is another data set of the same source.
In the case of F133V, the “effect of a mutation on the interaction” value was “with no effect”.
